# Measurements published in patent US20220112288A1 (published 2022).
# Target: T1, Rhesus macaque CD4-HIS (Acro Biosystems, Cat. CD4-C52H7) (rhesus macaque, UniProt P16003 26-390)
# T1 construct: Bought reagent; also called Rhesus CD4; rhesus CD4-HIS; not shown: His tag
# Assay: BLI Octet, mAb on anti-mouse Fc sensor, rhesus CD4-HIS 25-100 nM, 1:1 global fit;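 also: purified antibodies captured at 10 µg/mL, rhesus CD4 analyte run as a three-concentration serial dilution, irrelevant antibody as reference control, one kinetic constant set per antibody from global fitting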
# T1 sequence (P16003 26-390 limits assumed): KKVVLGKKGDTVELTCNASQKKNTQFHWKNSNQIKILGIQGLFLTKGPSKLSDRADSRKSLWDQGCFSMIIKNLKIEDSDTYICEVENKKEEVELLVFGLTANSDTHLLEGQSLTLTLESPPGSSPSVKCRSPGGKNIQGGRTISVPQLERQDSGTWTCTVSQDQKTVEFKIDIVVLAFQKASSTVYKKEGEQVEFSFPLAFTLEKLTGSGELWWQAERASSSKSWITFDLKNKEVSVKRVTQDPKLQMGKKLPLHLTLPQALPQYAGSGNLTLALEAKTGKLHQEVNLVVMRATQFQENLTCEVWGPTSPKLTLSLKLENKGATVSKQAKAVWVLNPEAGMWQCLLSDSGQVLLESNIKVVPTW
Kd,Response,koff,kon,Binder
6.7 nM,0.03,0.0079 s⁻¹,1.2e+06 M⁻¹ s⁻¹,"75110_05E13A (antibody, V domains shown, Tested as antibody purified from AlivaMab Mouse hybridoma supernatant (captured by anti-mouse IgG Fc)) VH: EVQLVESGGDLVKPGGSLRLSCAASGFSFSNAWMSWVRQAPGKGLEWVGRVESKTDGGTTDYAAPVKDRFTISRDDSKYTLYLQMNSLKTEDSAVYYCTIGGGFGLELYGFFDYWGQGTLVTVSS VL: DIQMTQSPSTLSASVGDRVTITCRASQSISSWLAWYQQKPGKAPMLLIYKASSLESGVPSRFSGSGSGTEFTLTISSLQPDDFATYYCLQYNSYYTFGQGTKLEIK"
2.3 nM,0.06,4.9e-05 s⁻¹,21000 M⁻¹ s⁻¹,"75110_05E05A (antibody, V domains shown, Tested as antibody purified from AlivaMab Mouse hybridoma supernatant (captured by anti-mouse IgG Fc)) VH: QVQLQESGPGLVKPSETLSLTCTVSGGSIGSYYWSWIRQPAGKGLEWIGRIYTSGSTNYNPSLKSRVTMSFDTSKNQFSLKLNSVTAADTAVYYCATDGGVGDSLDYWGQGTLVTVSS VL: DIVMTQTPLSLPVTPGEPASISCRSSQSLLDSDDGNTYLDWYLQKPGQSPQLLIYTLSYRASGVPDRFSGSGSGTDFTLKISRVEAEDVGVYYCMQHIEFPFTFGPGTKVDIK"

# Target: T2, human CD4 on human PBMCs (human, UniProt P01730 26-458)
# T2 construct: whole, on cells; the CD4-positive gate was set with the control antibodies OKT4 and RPA-T4; also called hCD4
# Assay: FACS, clonal hybridoma supernatant on PBMCs
% CD4 Stain,gMFI of CD4+,Binder
35.6%,149000 gMFI,"75110_04K10A (antibody, V domains shown, Tested as clonal hybridoma supernatant of an AlivaMab Mouse Kappa antibody (human variable regions, kappa; detected with anti-mouse Fc)) VH: EVQLVESGGGLVQPGGSLRLSCAASGFTFSSYWMSWVRQAPGKGLEWVANINQDGSEKYYVDSVKGRFTISRDNAKNSLYLQLNSLRAEDTAMYYCAREGGQWLSLDYWGQGTLVTVSS VL: DIQMTQSPSSVSASVGDRVTITCRASQGISSWLAWYQQKPGKAPKVLIYGVSSFQSGVPSRFSGSGSGTDFILTISSLQPEDFATYYCQQANSFPWTFGQGTKVEIK"
36.8%,162000 gMFI,"75110_03L12A (antibody, V domains shown, Tested as clonal hybridoma supernatant of an AlivaMab Mouse Kappa antibody (human variable regions, kappa; detected with anti-mouse Fc)) VH: QVQLQQWGAGLLKPSETLSLTCAVYGGSFSGYYWSWIRQPPGKGLEWIGEINHSGSTNYNPSLKSRVTISVDTSENQFSLTLISVTAADTAVYYCVRLINWFDPWGQGTLVTVSS VL: DIQMTQSPSSVSASVGDRVTITCRASQDISNWLAWYQQKPGKAPKLLIFAASSLQSGVPSRFSGSGSGTDFTLTISSLQPDDFATYYCQQANSFPYTFGQGTNLGIK"
55.8%,135000 gMFI,"75110_05B13A (antibody, V domains shown, Tested as clonal hybridoma supernatant of an AlivaMab Mouse Kappa antibody (human variable regions, kappa; detected with anti-mouse Fc)) VH: QVLLEQWGAGLLKPSETLSLTCAVYGGSFSGYYWTWIRQPPGKGLEWIGEINHRGSTNYNPSLKSRVTISIDTSKNQFSLKVKSVTAADTAMYYCTRPDSNWFDPWGQGTLVTVSS VL: DIQMTQSPSSVSASVGDRVTITCRASQDISNWLAWYQQKPGKAPKLLIFAASSLQSGVPSRFSGSGSGTDFTLTISSLQPEDFATYYCQQANSFPLTFGGGTKVEIK"
36.4%,128000 gMFI,"75110_04P08A (antibody, V domains shown, Tested as clonal hybridoma supernatant of an AlivaMab Mouse Kappa antibody (human variable regions, kappa; detected with anti-mouse Fc)) VH: QVQLQQWGAGLLKPSETLSLTCAVYGGSLSGYYWSWIRQSPGKGLEWIGEINQSGSTNYNPSLKSRVTISVDTSKDQFSLRLTSVTAADTAVYYCTRVLNWFDPWGRGTLVTVSS VL: DIQMTQSPSSVSASVGDRVTLTCRASQDISNWLAWYQQKPGKAPKLLIYAASSLQSGVPSRFSGSGSGTDFTLTISSLQTEDFATYYCQQANSFPYTFGQGTKLEIK"
36.3%,240000 gMFI,"75110_04G16A (antibody, V domains shown, Tested as clonal hybridoma supernatant of an AlivaMab Mouse Kappa antibody (human variable regions, kappa; detected with anti-mouse Fc)) VH: QVQLQESGPGLVKPSQTLSLTCTVSGDSISSGYYYWSWIRQHPGKGLEWIGYISYSGSTYYNPSLKSRLTISVNTSKNQFSLKLSSLTAADTAVYYCARDRPSNFDAFDIWGQGTMVTVSS VL: EIVLTQSPGTLSLSPGERATLSCRASQSVGSTYLAWYQQKPGQAPRLLIYGAFSRATGIPDRFSGSGSGTDFTLTISRLEPEDFAVYYCQQYGSSPLTFGPGTKVDIK"
37.7%,216000 gMFI,"75110_04F22A (antibody, V domains shown, Tested as clonal hybridoma supernatant of an AlivaMab Mouse Kappa antibody (human variable regions, kappa; detected with anti-mouse Fc)) VH: EVQLVESGGGLVQPGGSLRLSCAASGFTFSSYDIHWVRQATGKGLEWVSTIGTAGDTYYPGSVKGRFTISRENAKNSLYLQMNSLRAGDTAVYYCARGGYYYYGMDVWGQGTTVTVSS VL: EIVLTQSPGTLSLSPGERATLSCRASQSVYSSYLAWYQQKPGQAPRLLIYGASSRATGIPDRFSGSGSGTDFTLTISRLEPEDFAVYYCQQFGTSPFTFGPGTKVDIK"
38.1%,112000 gMFI,"75110_05K11A (antibody, V domains shown, Tested as clonal hybridoma supernatant of an AlivaMab Mouse Kappa antibody (human variable regions, kappa; detected with anti-mouse Fc)) VH: EVQLVESGGGLVQPGGSLRLSCAASGFTFSSYDMHWVRQPTGKGLEWVSTIGTAGDTYYPASVKGRFTISRENAKNSLYLQMNSLRAGDTAVYYCARGGFYYYGMDVWGQGTTVTVSS VL: EIVLTQSPGTLSLSPGERVTLSCRASQSVSNTYLAWYQQKPGQAPRLLIYGASSRATGIPDRFSGSGSGTDFTLTISRLEPEDFVVYYCQQHGSSPFTFGPGTKVDIK"
36.9%,241000 gMFI,"75110_04P06A (antibody, V domains shown, Tested as clonal hybridoma supernatant of an AlivaMab Mouse Kappa antibody (human variable regions, kappa; detected with anti-mouse Fc)) VH: EVQLVESGGGLVQPGGSLRLSCAASGFTFSNYDMHWVRQATGKGLEWVSTIGTAGDTYYPGSVKGRFTISRENAKNSLYLQMNSLRAGDTAVYYCARGGDYYYGMDVWGQGTTVTVSS VL: EIVLTQSPDTLSLSPGERATLSCRASQSLSSVYLAWYQQKPGQAPRLLIYGASSRATGIPDRFSGSGSGTDFTLTINRLEPEDFVVYYCQQYGSSPFTFGPGTKVDIK"
37.1%,155000 gMFI,"75110_05F19A (antibody, V domains shown, Tested as clonal hybridoma supernatant of an AlivaMab Mouse Kappa antibody (human variable regions, kappa; detected with anti-mouse Fc)) VH: EVQLVESGGGLVQPGGSLRLSCAASGFTFSNYDVHWVRQPTGKGLEWVSTIGTAGDTYYPGSVKGRFTISRENAKNSLYLQMNSLRAGDTAVYYCARGGYDYYGLDVWGQGTTVTVSS VL: not shown"
26.2%,67900 gMFI,"75110_03I23A (antibody, V domains shown, Tested as clonal hybridoma supernatant of an AlivaMab Mouse Kappa antibody (human variable regions, kappa; detected with anti-mouse Fc)) VH: QVQLQESGPGLVKPSETLSLTCTASGGSITSYYWNWIRQPAGKGLEWIGRIYTSGSTNYNPSLKSRVTMSVDTSKNQFSLKLSSVTAADTAVYYCARDPGYSDAFNIWGQGTMVTVSS VL: not shown"
17.8%,26100 gMFI,"75110_03I08A (antibody, V domains shown, Tested as clonal hybridoma supernatant of an AlivaMab Mouse Kappa antibody (human variable regions, kappa; detected with anti-mouse Fc)) VH: QVQLQESGPGLVKPSETLSLTCTVSGGSISSYYWSWIRQPPGKGLEWIGYIYYSGSTNYNPSLKSRVTISVDTSKNQFSLKLSSVTAADTAVYYCAREGEQWFYGLDVWGQGTTVTVSS VL: EIVLTQSPGTLSLSPGERATLSCRASQSVSSTYLAWYQQKPGQAPRLLIYGSSSRATGIPDRFSGSGSGTDFTLTISRLEPEDFAVYYCQQYGNSFPITFGQGTRLEIK"
33.2%,241000 gMFI,"75110_04D20A (antibody, V domains shown, Tested as clonal hybridoma supernatant of an AlivaMab Mouse Kappa antibody (human variable regions, kappa; detected with anti-mouse Fc)) VH: QVQLQESGPGLVKPSETLSLTCTVSNGSISDYYWSWIRQPAGKGLEWIGRIYTSGSTNYNPSLKSRITMSVDTSKNQFSLELSSVTAADTAVYYCARELERYYFYGVDVWGQGTTVTVSS VL: not shown"
38.5%,187000 gMFI,"75110_04G02A (antibody, V domains shown, Tested as clonal hybridoma supernatant of an AlivaMab Mouse Kappa antibody (human variable regions, kappa; detected with anti-mouse Fc)) VH: not shown VL: DIVMTQSPDSLAVSLGERATINCKSSQSVLYSSNNKNYLAWYQQKPGQPPKLLFYWASARESGVPDRFSGSGSGTDFTLTISSLQAEDVALYYCQQYFGSFPTFGQGTKLEIK"
40.6%,246000 gMFI,"75110_04B08A (antibody, V domains shown, Tested as clonal hybridoma supernatant of an AlivaMab Mouse Kappa antibody (human variable regions, kappa; detected with anti-mouse Fc)) VH: QVQLVESGGGVVQPGRSLRLSCTASGFNFINYGIHWVRQAPGKGLEWVTIIWYDGSKKYYADSVKGRFAISRDNSKNTLYLQMNSLRAEDTAVYYCAREDDWNDGLAYWGQGTLVTVSS VL: AIQMTQSPSSLSASVGDRVTITCRASQDIRNDLGWYQQKPGKAPNLLIYAASNLQSGVPSRFSGSGSGTDFTLTISSLQPEDFATYYCLQDSNYPRTFGQGTKVEIK"
28.8%,151000 gMFI,"75110_04H17A (antibody, V domains shown, Tested as clonal hybridoma supernatant of an AlivaMab Mouse Kappa antibody (human variable regions, kappa; detected with anti-mouse Fc)) VH: QVQLQESGPGLVKPSETLSLTCTVSGGSISTYYWSWIRQSAGKGLEWIGRIYTSERPNYNPSLKSRVTMSVDTSKNQFSLKLNSVSAADTAVYYCARELERPYYYGMDVWGQGTTVTVSS VL: DVQMTQSPSSLSASVGGRVTITCQASQDISNYLNWYQQKPGKAPKLLIYYASNLETGVPSRFSGSGSGTDFTFTISSLQPEDFATYYCQQYDNLPLTFGGGTKVEIK"
35.9%,246000 gMFI,"75110_05A11A (antibody, V domains shown, Tested as clonal hybridoma supernatant of an AlivaMab Mouse Kappa antibody (human variable regions, kappa; detected with anti-mouse Fc)) VH: EVQLVESGGGLVKPGGSLTLSCAASGFTFSNTWMSWVRQAPGKGLEWVGRIKSKIDGGTTDYAAPVKGRFTISRDDSKNTLYLQMNSLKTEDTAVYYCTTSGTYSSGWGLFDYWGQGTLVTVSS VL: DIQMTQSPSSLSASVGDRVTITCQASQDISNYLNWYQQKPGKAPKLLIYDTSNLEAGVPSRFSGSGSGTHFTLTISSLQPEDIATYYCQQYDNLPFTFGGGTRVEIK"

# Target: T3, Recombinant human CD4 (R&D Systems, Cat. 10327-CD) (human, UniProt P01730 26-390, limits assumed)
# T3 construct: Bought soluble recombinant protein used as analyte at 100 nM; also called huCD4
# Assay: BLI (Octet Red384), non-clonal supernatant on AMC sensor, 100 nM human CD4, 1:1 local fit;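 also: hybridoma antibodies captured from supernatant, single CD4 concentration as analyte, association and dissociation phases fitted together, giving single-point kinetic estimates per supernatant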
Kd,koff,kon,Binder
< 0.001 nM,< 1e-07 s⁻¹,64800 M⁻¹ s⁻¹,"75110_10O16A (antibody, V domains shown, Non-clonal AlivaMab Mouse Kappa hybridoma supernatant, captured by anti-mouse IgG Fc (human V regions, mouse Fc); also called 75110_10016A) VH: EVQLVESGGGLVQPGGSLRLSCAASGFTFSNSDMHWVRQATGKGLEWVSTIGTAGDTYYPGSVKGRFTISRENAKNSLYLQMNSLRAGDTAVYYCARGGLYYYGMDVWGQGTTVTVSS VL: ENVLTQSPGTLSLSPGERATLSCRASQSVSSSYLAWYQQKPGQAPRLLIYGASSRATGIPDRFSGSGSGTDFTLTISRLEPEDFAVYYCHQFGSSPFTFGPGTKVDIK"

# Target: T4, Recombinant human CD4 (R&D Systems, Cat. 10327-CD) (human, UniProt P01730 26-390, limits assumed)
# T4 construct: Bought reagent; also called huCD4
# Assay: BLI Octet, non-clonal supernatant on AMC sensor, 100 nM human CD4, 1:1 local fit;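 also: Single-concentration kinetics per supernatant, with the 1:1 model fitted across both the association and dissociation phases of the sensorgram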
Kd,koff,kon,Binder
7.47 nM,0.00134 s⁻¹,179000 M⁻¹ s⁻¹,"75110_14P08A (antibody, V domains shown, Tested as non-clonal AlivaMab Mouse Kappa hybridoma supernatant, captured by anti-mouse IgG Fc sensor) VH: QVQLQESGPGLVKSSETLSLTCTDSGDSIRSYYWNWIRQPAGKGLEWIGRIYASGSTNYNPSLKSRVIMSADTSKNRFSLKLSSVTAADTAVYYCARDGGVGDSLDYWGQGTLVTVSS VL: DIVMTQTPLSLPVTPGEPASISCRSSQSLLDSDDGNTYLDWYLQKPGQSPQLLIYTLSYRASGVPDRFSGSGSGTDFTLKISRVEAEDVGVYYCMQRIEFPFTFGPGTKVDIK"
